Test results published in article PMC10515946.

How the values were obtained:
[1] = biological target: BG505 SOSIP (soluble Env trimer of HIV-1 BG505) (HIV-1 strain BG505); assay: cryo-EM structure
[2] = biological target: 1059 SOSIP (TPA-1059 SOSIP, soluble Env trimer of the transmitted/founder HIV-1 strain 1059), purifi (HIV-1 strain 1059); assay: cryo-EM structure

Row | Substance | stoichiometry N [1] | stoichiometry N [2]
1 | BG505 SOSIP (soluble Env trimer of HIV-1 BG505) (complex) | 3 | –
2 | 1059 SOSIP (TPA-1059 SOSIP, soluble Env trimer of the transmitted/founder HIV-1 strain 1059), purifi (complex) | – | 3
